Reference: publication PMC8609364, “A Selective Tether Recruits Activated Response Regulator CheB to Its Chemoreceptor Substrate” (mBio, 2021)

Key:
[1] = test system: Tar4QΔpp (chemoreceptor Tar, all-glutaminyl, lacking NWETF); assay: CheB binding to Tar4QΔpp (pentapeptide-lacking) in Nanodiscs (biolayer interferometry); parameters: species or system E. coli; details: Tar 4Q, pentapeptide no, BLI, pH 7.5, 2% BSA (plus 2 mM DTT for CheB and CheBc); for dwell time (1/koff): calculated from mean koff; for dwell time (1/koff) / KA (equilibrium association constant): propagated SD; for KA (equilibrium association constant): calculated from mean kon and koff; for kon (apparent association rate constant): mean ± SD of at least three independent experiments
Method: (§1) We determined the kinetics of association and dissociation of methylesterase/deamidase CheB in its low- and high-activity form with the E. coli aspartate chemoreceptor Tar using biolayer interferometry ([22], [23]) and isolated receptor homodimers in Nanodiscs ([24], [25]). Apparent rate constants of association and dissociation were derived from global fits of time courses for binding and release (see Fig. S1 in the supplemental material). Equilibrium dissociation constants were calculated from those apparent rate constants.
(§2) E. coli CheB and Salmonella CheB D56C/C207S/C309S and D56C/S164A/C207S/C309S were purified as described previously ([11]). CheBC (amino acids [aa] 153 to 349) was purified using the procedure of West et al. ([40]), except that Bio-Gel P-60, was not used. CheB D56C/C207S/C309S and CheB D56C/S164A/C207S/C309S were modified to create a disulfide-linked phosphoryl group on D56C following the procedure described in reference but using a 10-fold molar excess of DTNB [Ellman’s reagent, 5,5′-disulfanediylbis(2-nitrobenzoic acid)] rather than 90-fold and a 50-fold molar excess Na3SPO3 rather than 1,000-fold. The extent of modification was 59% for the former and 60% for the latter determined by reversed phase chromatography essentially as described previously ([26]) and confirmed by Nano LC-Nanospray QTQF mass spectroscopy. Membrane scaffold protein MSP1D1(-) ([41]) was purified as described previously ([25]). Tar4E L378C, Tar4Q L378C, Tar4EΔpp-6H L378C, and Tar4QΔpp-6H L378C were purified, incorporated into Nanodiscs at approximately one receptor dimer per disc, and biotinylated at L378C as described previously ([23], [42]). […] These activities were confirmed for representative samples used in our analyses. Receptor-containing Nanodiscs were dialyzed into 50 mM Tris-HCl (pH 7.5), 0.5 mM EDTA, 10% (wt/vol) glycerol, and 100 mM NaCl. Prior to a binding experiment, the solution was changed using a spin desalting column to 50 mM Tris-HCl, 10% (wt/vol) glycerol, 5 mM MgCl2, and 50 mM KCl (pH 7.5).
(§3) Kinetics of CheB association and dissociation with Nanodisc-embedded Tar biotinylated at L378C were determined using biolayer interferometry ([22], [23]) as measured by a BLItz instrument (ForteBio, Menlo Park, CA, USA) and described in reference. Representative time course experiments are shown in Fig. S1 in the supplemental material. Measurements for CheB-P* and CheB-P*-I were in 50 mM Tris-HCl (pH 7.5), 10% (wt/vol) glycerol, 5 mM MgCl2, 50 mM KCl, and 2% (wt/vol) bovine serum albumin (BSA). Measurements for CheB and CheBc were in the same solution plus 2 mM dithiothreitol (DTT).
(§4) Using BLItz software, response curves were fit globally to a 1:1 binding model to yield apparent association rate constants (kon) and dissociation rate constants (koff). For analysis of complex patterns of binding, in which more than one binding reaction appeared to be contributing, for instance one that appeared saturable and another nonspecific, nonsaturable, the data were exported and fit globally to nonlinear exponential functions using OriginPro 2017. The best fits to the data were obtained using the following functions. R=R0 + Req[a(e^−kd1 t) + b(e^−kd2 t)] was used to globally fit dissociation time courses, with R being the response (in nanometers), a + b = 1, with a and b being the portion of the signal (in nanometers) for fast and slow phases, respectively, kd1 and kd2 being the respective dissociation rate constants, and Req being the response at equilibrium. Association data were fit using apparent dissociation rate constants kd1 and kd2, relevant CheB concentrations (C) and the equation R=R0 + Req[a(1 − e^−(ka1 C+kd1)t) + b(1 − e^−(ka2 C+kd2)t)]

[2] = molecular target: T1, Tar4QΔpp-6H L378C, E. coli Tar lacking the carboxyl-terminal pentapeptide, all-glutaminyl form, homodimer in … (E. coli, UniProt P07017 1-553, L378C, biotinylated at L378C); assay: SPR
[3] = molecular target: T2, Tar4Q L378C, E. coli aspartate chemoreceptor Tar, all-glutaminyl form with carboxyl-terminal pentapeptide, … (E. coli, UniProt P07017 1-553, L378C, biotinylated at L378C); assay: SPR
[4] = test system: Tar4EΔpp (chemoreceptor Tar, all-glutamyl, lacking NWETF); assay: CheB binding to Tar4EΔpp (pentapeptide-lacking) in Nanodiscs (biolayer interferometry); parameters: species or system E. coli; details: Tar 4E, pentapeptide no, BLI, pH 7.5, 2% BSA (plus 2 mM DTT for CheB and CheBc); for dwell time (1/koff): calculated from mean koff; for dwell time (1/koff) / KA (equilibrium association constant): propagated SD; for KA (equilibrium association constant): calculated from mean kon and koff; for kon (apparent association rate constant): mean ± SD of at least three independent experiments
Method: as §1, §2, §3, §4

[5] = molecular target: Tar4Q (chemoreceptor Tar, all-glutaminyl, pentapeptide-bearing); assay: CheB binding to pentapeptide-bearing Tar4Q in Nanodiscs (biolayer interferometry); parameters: species or system E. coli; details: Tar 4Q, pentapeptide yes, BLI; for dwell time (1/koff) / KA (equilibrium association constant) / kon (apparent association rate constant): pH 7.5, 2% BSA (plus 2 mM DTT for CheB and CheBc); for dwell time (1/koff): calculated from mean koff; for kon (apparent association rate constant): mean ± SD of at least three independent experiments
Method: as §1, §2, §3, §4

[6] = molecular target: Tar4E L378C, E. coli aspartate chemoreceptor Tar, all-glutamyl form with carboxyl-terminal pentapeptide, … (E. coli, UniProt P07017 1-553, L378C, biotinylated at L378C); assay: SPR
[7] = molecular target: T1, Tar4QΔpp-6H L378C, E. coli Tar lacking …; assay: SPR; remark: listed apart in the source
[8] = molecular target: Tar4EΔpp-6H L378C, E. coli Tar lacking the carboxyl-terminal pentapeptide, all-glutamyl form, homodimer in … (E. coli, UniProt P07017 1-553, L378C, biotinylated at L378C); assay: SPR
[9] = molecular target: T2, Tar4Q L378C, E. coli aspartate …; assay: SPR; remark: listed apart in the source
[10] = calculated from mean kon and koff, propagated SD

Molecule	dwell time (1/koff) [1] [s]	KA (equilibrium association constant) [1]	kon (apparent association rate constant) [1]	Ka [2] [M⁻¹]	Ka [3] [M⁻¹]	dwell time (1/koff) [4] [s]	KA (equilibrium association constant) [4]	kon (apparent association rate constant) [4] [M⁻¹ s⁻¹]	Kd ([5]; 50 mM Tris-HCl pH 7.5, 10% glycerol, 5 mM MgCl2, 50 mM KCl, 2% BSA (plus 2 mM DTT for CheB and CheBc), calculated from mean kon and koff, propagated SD, read-out: KD (equilibrium dissociation constant)) [µM]	dwell time (1/koff) ([5]; propagated SD) [s]	KA (equilibrium association constant) [5, 10]	kon (apparent association rate constant) [5]	koff [6] [s⁻¹]	koff [7] [s⁻¹]	koff [8] [s⁻¹]	koff [9] [s⁻¹]
methylesterase/deamidase CheB from E. coli, low-activity, unphosphorylated form (enzyme, UniProt P07330 1-349, looked up, CheB methylesterase/deamidase of E. coli, unphosphorylated, from plasmid pCW/cheB; measured with 2 mM DTT in the buffer; also called low-activity CheB; unmodified CheB; source: E. coli K-12 RP3098 with pCW/cheB, purified) MSKIRVLSVDDSALMRQIMTEIINSHSDMEMVATAPDPLVARDLIKKFNPDVLTLDVEMPRMDGLDFLEKLMRLRPMPVVMVSSLTGKGSEVTLRALELGAIDFVTKPQLGIREGMLAYNEMIAEKVRTAAKASLAAHKPLSAPTTLKAGPLLSSEKLIAIGASTGGTEAIRHVLQPLPLSSPALLITQHMPPGFTRSFADRLNKLCQIGVKEAEDGERVLPGHAYIAPGDRHMELSRSGANYQIKIHDGPAVNRHRPSVDVLFHSVAKQAGRNAVGVILTGMGNDGAAGMLAMRQAGAWTLAQNEASCVVFGMPREAINMGGVCEVVDLSQVSQQMLAKISAGQAIRI	1.5 ± 0.05	1.7 ± 0.4 10^3 M^-1	1,100 ± 260 M^-1s^-1	1700	6300	1.6 ± 0.2	1.2 ± 0.1 10^3 M^-1	750 ± 8	160 ± 30	2.2 ± 0.1	6.3 ± 1 10^3 M^-1	2,900 ± 480 M^-1s^-1	0.36	0.65	0.64	0.46
CheBC, catalytic domain of E. coli CheB lacking the regulatory domain and linker (domain or fragment) LSSEKLIAIGASTGGTEAIRHVLQPLPLSSPALLITQHMPPGFTRSFADRLNKLCQIGVKEAEDGERVLPGHAYIAPGDRHMELSRSGANYQIKIHDGPAVNRHRPSVDVLFHSVAKQAGRNAVGVILTGMGNDGAAGMLAMRQAGAWTLAQNEASCVVFGMPREAINMGGVCEVVDLSQVSQQMLAKISAGQAIRI	1.7 ± 0.1	0.8 ± 0.1 10^3 M^-1	480 ± 20 M⁻¹ s⁻¹	800	700	2.3 ± 0.2	1.5 ± 0.3 10^3 M^-1	670 ± 140	–	2.1 ± 0.4	0.7 ± 0.2 10^3 M^-1	350 ± 60 M⁻¹ s⁻¹	0.48	0.58	0.44	0.48
